Data taken from patent US20150050271A1 (published 2015).

How the values were obtained:
WT (2A) = test: ELISA
WT (1A) = test: ELISA
WT (1B) = test: ELISA
WT (2B) = test: ELISA
WT (3) = test: ELISA
Type 3 wt = test: Biacore; mAb; printed ≤
[1] = biological target: T1, MAD1 JCV VLPs (virus-like particles of JCV capsid protein VP1, MAD1 strain) (JC virus (JCV), MAD1, UniProt P03089 1-354); test: Biacore; Fab
[2] = biological target: T1, MAD1 JCV VLPs (virus-like particles of …); test: ELISA
[3] = biological target: T1, MAD1 JCV VLPs (virus-like particles of …); test: Biacore; mAb

T1 sequence (P03089 whole entry): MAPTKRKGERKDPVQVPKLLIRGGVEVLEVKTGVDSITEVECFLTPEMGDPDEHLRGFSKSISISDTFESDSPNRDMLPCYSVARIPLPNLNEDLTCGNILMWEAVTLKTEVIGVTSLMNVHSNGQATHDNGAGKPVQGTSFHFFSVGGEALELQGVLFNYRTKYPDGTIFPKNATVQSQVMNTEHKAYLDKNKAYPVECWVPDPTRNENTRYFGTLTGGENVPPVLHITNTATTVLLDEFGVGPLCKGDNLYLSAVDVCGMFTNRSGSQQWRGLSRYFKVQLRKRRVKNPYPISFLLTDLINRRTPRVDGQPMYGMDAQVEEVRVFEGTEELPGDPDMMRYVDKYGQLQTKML

B1: BIIB048 (antibody, V domains shown)
VH: QVQLVESGGGVVQPGRSLRLSCAASGFSFDRNYWIAWVRQAPGKGLEWVAVISAGGSGNTYYATWAKGRFTISRDNSKNTLYLQMNSLRAEDTAVYYCARFYSGGGYYAGYFTLWGQGTLVTVSS
VL: AIQLTQSPSSLSASVGDRVTITCQASQSIGNNLAWYQQKPGKAPKLLIYLASYLASGVPSRFSGSGSGTDFTLTISSLQPEDFATYYCQSSYYSPNDNAFGQGTKVEIK
WT (2A)
  EC50: < 0.1 nM
WT (1A)
  EC50: < 0.1 nM
WT (1B)
  EC50: < 0.1 nM
WT (2B)
  EC50: < 0.1 nM
WT (3)
  EC50: < 0.1 nM

B2: H0/L0 mAb (antibody, V domains shown)
VH: QVQLVESGGGVVQPGRSLRLSCAASGFSFDRNYWIAWVRQAPGKGLEWVAVISAGGSGNTYYATWAKGRFTISRDNSKNTLYLQMNSLRAEDTAVYYCARFYSGGGYYAGYFTLWGQGTLVTVSS
VL: AIQLTQSPSSLSASVGDRVTITCQASQSIGNNLAWYQQKPGKAPKLLIYLASYLASGVPSRFSGSGSGTDFTLTISSLQPEDFATYYCQSSYYSPNDNAFGQGTKVEIK
Type 3 wt
  Kd: < 0.01 nM

B3: V50A/N31A Fab (antibody, V domains shown)
VH: QVQLVESGGGVVQPGRSLRLSCAASGFSFDRNYWIAWVRQAPGKGLEWVAAISAGGSGNTYYATWAKGRFTISRDNSKNTLYLQMNSLRAEDTAVYYCARFYSGGGYYAGYFTLWGQGTLVTVSS
VL: AFQLTQSPSSLSASVGDRVTINCQASQSIGANLAWYQQKPGKAPKLLIYLASYLASGVPSRFSGSGSGTQFTLTVSSLQPEDFATYYCQSSYYSPNDNAFGQGTKVEIK
[1]
  Kd: 8.9 nM

B4: humanized R399 H0L0 (antibody, V domains shown)
VH: QVQLVESGGGVVQPGRSLRLSCAASGFSFDRNYWIAWVRQAPGKGLEWVAVISAGGSGNTYYATWAKGRFTISRDNSKNTLYLQMNSLRAEDTAVYYCARFYSGGGYYAGYFTLWGQGTLVTVSS
VL: AIQLTQSPSSLSASVGDRVTITCQASQSIGNNLAWYQQKPGKAPKLLIYLASYLASGVPSRFSGSGSGTDFTLTISSLQPEDFATYYCQSSYYSPNDNAFGQGTKVEIK
[2]
  EC50: < 0.1 nM

B5: 5031G (antibody, V domains shown)
VH: QVQLVESGGGVVQPGRSLRLSCAASGFSFDRNYWIAWVRQAPGKGLEWVAGISAGGSGNTYYATWAKGRFTISRDNSKNTLYLQMNSLRAEDTAVYYCARFYSGGGYYAGYFTLWGQGTLVTVSS
VL: AFQLTQSPSSLSASVGDRVTINCQASQSIGANLAWYQQKPGKAPKLLIYLASYLASGVPSRFSGSGSGTQFTLTVSSLQPEDFATYYCQSSYYSPNDNAFGQGTKVEIK
WT (2A)
  EC50: < 0.1 nM
WT (1A)
  EC50: < 0.1 nM
WT (1B)
  EC50: < 0.1 nM
WT (2B)
  EC50: < 0.1 nM
WT (3)
  EC50: < 0.1 nM

B6: antibody 50/31-A (heavy chain H0 V50A, light chain L2 N31A) (antibody, V domains shown)
VH: QVQLVESGGGVVQPGRSLRLSCAASGFSFDRNYWIAWVRQAPGKGLEWVAAISAGGSGNTYYATWAKGRFTISRDNSKNTLYLQMNSLRAEDTAVYYCARFYSGGGYYAGYFTLWGQGTLVTVSS
VL: AFQLTQSPSSLSASVGDRVTINCQASQSIGANLAWYQQKPGKAPKLLIYLASYLASGVPSRFSGSGSGTQFTLTVSSLQPEDFATYYCQSSYYSPNDNAFGQGTKVEIK
[3]
  Kd: 0.9 nM

B7: H0/L0 Fab (antibody, V domains shown)
VH: QVQLVESGGGVVQPGRSLRLSCAASGFSFDRNYWIAWVRQAPGKGLEWVAVISAGGSGNTYYATWAKGRFTISRDNSKNTLYLQMNSLRAEDTAVYYCARFYSGGGYYAGYFTLWGQGTLVTVSS
VL: AIQLTQSPSSLSASVGDRVTITCQASQSIGNNLAWYQQKPGKAPKLLIYLASYLASGVPSRFSGSGSGTDFTLTISSLQPEDFATYYCQSSYYSPNDNAFGQGTKVEIK
[1]
  Kd: 50 nM

B8: antibody 50/31-G (heavy chain H0 V50G, light chain L2-N31A, as told in paragraph 169) (antibody, V domains shown)
VH: QVQLVESGGGVVQPGRSLRLSCAASGFSFDRNYWIAWVRQAPGKGLEWVAGISAGGSGNTYYATWAKGRFTISRDNSKNTLYLQMNSLRAEDTAVYYCARFYSGGGYYAGYFTLWGQGTLVTVSS
VL: AFQLTQSPSSLSASVGDRVTINCQASQSIGANLAWYQQKPGKAPKLLIYLASYLASGVPSRFSGSGSGTQFTLTVSSLQPEDFATYYCQSSYYSPNDNAFGQGTKVEIK
[2]
  EC50: < 0.1 nM
